Biological target: GST-Ras^V12(GTPγS) agarose (UniProt P01112)
Test: GST-Ras^V12 agarose pull-down from COS cell lysate, anti-MEKK immunoblot

B1: MEKK1 (protein encoded by p-MEKK1, transiently expressed in COS cells) (enzyme)
chain: MVTAVPAVFSKLVTMLNASGSTHFTRMRRRLMAIADEVEIAEVIQLGVEDTVDGHQDSLQAVAPTSCLENSSLEHTVHREKTGKGLSATRLSASSEDISDRLAGVSVGLPSSTTTEQPKPAVQTKGRPHSQCLNSSPLSHAQLMFPAPSAPCSSAPSVPDISKHRPQAFVPCKIPSASPQTQRKFSLQFQRNCSEHRDSDQLSPVFTQSRPPPSSNIHRPKPSRPVPGSTSKLGDATKSSMTLDLGSASRCDDSFGGGGNSGNAVIPSDETVFTPVEDKCRLDVNTELNSSIEDLLEASMPSSDTTVTFKSEVAVLSPEKAENDDTYKDDVNHNQKCKEKMEAEEEEALAIAMAMSASQDALPIVPQLQVENGEDIIIIQQDTPETLPGHTKAKQPYREDAEWLKGQQIGLGAFSSCYQAQDVGTGTLMAVKQVTYVRNTSSEQEEVVEALREEIRMMGHLNHPNIIRMLGATCEKSNYNLFIEWMAGGSVAHLLSKYGAFKESVVINYTEQLLRGLSYLHENQIIHRDVKGANLLIDSTGQRLRIADFGAAARLASKGTGAGEFQGQLLGTIAFMAPEVLRGQQYGRSCDVWSVGCAIIEMACAKPPWNAEKHSNHLALIFKIASATTAPSIPSHLSPGLRDVAVRCLELQPQDRPPSRELLKHPVFRTTW
Question: How did the fold binding relative to GST-Ras^V12(GDP) turn out when B1 was run?
Answer: > 5 fold

From patent US20080201790A1, “Method and product for regulating cell responsiveness to external signals” (priority 1993, published 2008)
